Experimental data taken from PMC11339404.

Tests used:
Assay in all cases: FRET
SWSAP1-SWS1 = biological target: T1, SWSAP1-SWS1 (human, UniProt Q6NVH7;Q19AV6 1-250;1-140)
T1 sequence 1: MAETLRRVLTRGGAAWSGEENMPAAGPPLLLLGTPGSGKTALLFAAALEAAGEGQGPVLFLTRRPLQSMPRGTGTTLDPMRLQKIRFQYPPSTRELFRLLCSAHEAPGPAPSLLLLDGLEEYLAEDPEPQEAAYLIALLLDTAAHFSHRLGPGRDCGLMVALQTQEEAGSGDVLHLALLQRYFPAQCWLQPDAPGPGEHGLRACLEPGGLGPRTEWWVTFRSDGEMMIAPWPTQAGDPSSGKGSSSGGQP
T1 sequence 2: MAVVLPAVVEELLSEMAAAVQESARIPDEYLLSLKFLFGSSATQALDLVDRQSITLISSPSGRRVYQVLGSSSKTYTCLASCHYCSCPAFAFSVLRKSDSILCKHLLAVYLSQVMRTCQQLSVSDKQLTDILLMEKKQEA

RPA = RPA (human, UniProt P27694;P15927;P35244 1-616;1-270;1-121)
RAD51;SWSAP1-SWS1 = RAD51;SWSAP1-SWS1 (human;human, UniProt Q06609;Q6NVH7;Q19AV6 1-339;1-250;1-140, |)
RAD51 = RAD51 (human, UniProt Q06609 1-339)
Chain of RAD51 (Q06609 whole entry): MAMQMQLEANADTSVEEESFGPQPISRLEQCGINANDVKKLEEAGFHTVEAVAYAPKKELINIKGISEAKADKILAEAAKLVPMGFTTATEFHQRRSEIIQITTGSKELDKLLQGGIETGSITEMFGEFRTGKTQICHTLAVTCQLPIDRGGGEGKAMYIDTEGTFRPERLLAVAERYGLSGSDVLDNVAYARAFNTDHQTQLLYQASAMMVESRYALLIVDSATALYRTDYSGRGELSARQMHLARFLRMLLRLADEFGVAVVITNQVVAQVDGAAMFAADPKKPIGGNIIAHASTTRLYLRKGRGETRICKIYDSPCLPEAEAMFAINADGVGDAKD

Chain of RAD51;SWSAP1-SWS1 (Q06609 whole entry, one chain of several): as the sequence (Q06609 whole entry) above
Chain of RPA (P27694 whole entry, chain 1 of 3): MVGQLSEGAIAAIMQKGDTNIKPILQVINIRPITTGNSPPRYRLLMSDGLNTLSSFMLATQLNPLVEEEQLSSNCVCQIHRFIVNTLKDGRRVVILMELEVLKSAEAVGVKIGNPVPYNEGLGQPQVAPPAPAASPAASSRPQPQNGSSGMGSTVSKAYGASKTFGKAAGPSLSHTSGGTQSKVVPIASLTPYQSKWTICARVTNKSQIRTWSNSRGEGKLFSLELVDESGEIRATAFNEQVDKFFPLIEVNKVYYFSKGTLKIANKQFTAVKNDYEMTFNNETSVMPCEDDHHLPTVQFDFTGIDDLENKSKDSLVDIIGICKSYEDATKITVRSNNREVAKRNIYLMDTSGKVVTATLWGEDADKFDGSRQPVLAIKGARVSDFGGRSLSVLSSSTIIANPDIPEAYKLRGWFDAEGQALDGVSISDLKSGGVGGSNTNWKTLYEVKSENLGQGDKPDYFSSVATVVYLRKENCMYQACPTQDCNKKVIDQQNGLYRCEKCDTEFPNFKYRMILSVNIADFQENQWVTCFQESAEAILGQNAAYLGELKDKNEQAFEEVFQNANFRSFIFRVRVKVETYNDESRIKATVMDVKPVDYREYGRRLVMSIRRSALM
Chain of RPA (P15927 whole entry, chain 2 of 3): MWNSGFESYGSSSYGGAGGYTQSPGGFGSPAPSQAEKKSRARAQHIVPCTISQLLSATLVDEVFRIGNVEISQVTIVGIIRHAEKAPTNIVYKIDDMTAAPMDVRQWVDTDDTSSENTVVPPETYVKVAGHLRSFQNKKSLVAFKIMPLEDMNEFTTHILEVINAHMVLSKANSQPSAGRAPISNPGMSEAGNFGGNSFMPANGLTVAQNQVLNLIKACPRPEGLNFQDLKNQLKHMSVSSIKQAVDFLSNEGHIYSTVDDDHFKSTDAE
Chain of RPA (P35244 whole entry, chain 3 of 3): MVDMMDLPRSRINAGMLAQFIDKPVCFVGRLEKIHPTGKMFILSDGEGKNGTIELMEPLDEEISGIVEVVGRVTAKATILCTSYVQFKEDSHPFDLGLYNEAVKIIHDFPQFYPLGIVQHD

B1: Cy3-dT60-Cy5 (ssDNA)
DNA: TTTTTTTTTTTTTTTTTTTTTTTTTTTTTTTTTTTTTTTTTTTTTTTTTTTTTTTTTTTT
- binding result (SWSAP1-SWS1): no binding
- binding result (RPA): binds
- binding result (RAD51;SWSAP1-SWS1): binds
- binding result (RAD51): binds
